The values that follow come from patent US20250084172A1 (23ANDME, published 2025).

Changes are numbered by the printed parent chain. Numbers in names are those of the source.

The target in assay [1] is T1, human soluble ULBP6 haplotype 02 (hULBP6_02) (human, UniProt Q5VY80 26-218).
T1 construct: also called sULBP6_02
T1 chain: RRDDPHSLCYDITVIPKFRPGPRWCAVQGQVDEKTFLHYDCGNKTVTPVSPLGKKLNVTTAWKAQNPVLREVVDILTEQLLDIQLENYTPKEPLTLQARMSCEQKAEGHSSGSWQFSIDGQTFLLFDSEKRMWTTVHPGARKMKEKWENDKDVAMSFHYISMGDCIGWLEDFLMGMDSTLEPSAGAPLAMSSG
Briefly: blocking ELISA; hNKG2D coated, antibody titrated with biotinylated hULBP6_02. In general terms: ELISA stands for enzyme-linked immunosorbent assay.

Assay [2] has as its target T2, human soluble ULBP5 (hULBP5) (human, UniProt Q6H3X3 26-218).
T2 construct: also called sULBP5
T2 sequence: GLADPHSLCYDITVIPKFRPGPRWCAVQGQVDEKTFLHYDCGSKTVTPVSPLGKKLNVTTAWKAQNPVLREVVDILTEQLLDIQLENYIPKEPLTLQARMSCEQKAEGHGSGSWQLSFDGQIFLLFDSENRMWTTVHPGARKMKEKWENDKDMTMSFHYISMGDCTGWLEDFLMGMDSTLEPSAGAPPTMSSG
Briefly: SPR (BIACORE). (In general: Surface plasmon resonance follows binding to a sensor surface in real time, without labels.)

The target of assay [3] is T3, cynomolgus soluble ULBP5 (cULBP5) (cynomolgus).
T3 construct: also called Cyno-cULBP5
T3 chain: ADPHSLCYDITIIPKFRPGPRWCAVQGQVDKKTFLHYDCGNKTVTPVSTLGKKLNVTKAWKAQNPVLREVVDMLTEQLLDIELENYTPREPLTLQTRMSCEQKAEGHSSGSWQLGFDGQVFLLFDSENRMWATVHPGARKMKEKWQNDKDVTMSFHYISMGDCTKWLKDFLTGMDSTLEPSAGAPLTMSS
The assay can be described thus: SPR (BIACORE).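 Note: soluble human and cynomolgus NKG2D ligands injected as analytes in 3-fold dilution series spanning 0.01 to 50 nM at 37 °C, reference-subtracted sensorgrams fitted to a 1:1 Langmuir model.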

Assay [4] has as its target T4, human soluble ULBP6 haplotype 01 (hULBP6_01) (human, UniProt Q5VY80 27-218, limits assumed).
T4 construct: also called sULBP6_01
T4 chain: T1 chain with R1G, L81R, T122I
The assay can be described thus: SPR (BIACORE).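 Note: soluble human and cynomolgus NKG2D ligands injected as analytes in 3-fold dilution series spanning 0.01 to 50 nM at 37 °C, reference-subtracted sensorgrams fitted to a 1:1 Langmuir model.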

Assay [5] addresses T5, cynomolgus soluble ULBP2/6 (cULBP2/6) (cynomolgus, UniProt Q5VY80 28-217 (human entry), limits assumed).
T5 construct: also called cyno ULBP6; Cyno-cULBP2/6
T5 chain: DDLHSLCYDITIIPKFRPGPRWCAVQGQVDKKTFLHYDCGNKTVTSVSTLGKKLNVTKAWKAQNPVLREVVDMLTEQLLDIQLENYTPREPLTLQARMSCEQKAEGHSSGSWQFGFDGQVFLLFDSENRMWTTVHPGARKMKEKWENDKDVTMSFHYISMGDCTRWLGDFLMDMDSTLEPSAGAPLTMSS
The assay can be described thus: SPR (BIACORE).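 Note: soluble human and cynomolgus NKG2D ligands injected as analytes in 3-fold dilution series spanning 0.01 to 50 nM at 37 °C, reference-subtracted sensorgrams fitted to a 1:1 Langmuir model.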

Assay [6] addresses T6, human soluble ULBP2 (hULBP2) (human, UniProt Q9BZM5 26-216).
T6 construct: also called sULBP2
T6 sequence: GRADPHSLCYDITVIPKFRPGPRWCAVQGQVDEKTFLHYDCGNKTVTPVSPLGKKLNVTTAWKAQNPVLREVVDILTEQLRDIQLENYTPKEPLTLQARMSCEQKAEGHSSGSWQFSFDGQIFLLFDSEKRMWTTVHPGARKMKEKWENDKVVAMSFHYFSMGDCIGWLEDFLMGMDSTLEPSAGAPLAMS
The assay can be described thus: SPR (BIACORE).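 Note: soluble human and cynomolgus NKG2D ligands injected as analytes in 3-fold dilution series spanning 0.01 to 50 nM at 37 °C, reference-subtracted sensorgrams fitted to a 1:1 Langmuir model.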

The target of assay [7] is T1, human soluble ULBP6 haplotype 02 …. Briefly: SPR (BIACORE).
Assay [8] deals with T4, human soluble ULBP6 haplotype 01 …. Briefly: blocking ELISA; hNKG2D coated, antibody titrated with biotinylated hULBP6_01.
Assay [9] addresses hNKG2D-Fc (human NKG2D 78-216 with C-terminal long huFc-Flag tag) (human). Briefly: SPR (BIACORE 8K, 37 C); hNKG2D-Fc captured on Protein A, soluble ligand injected.
For assay [10], the target named is T3, cynomolgus soluble ULBP5 (cULBP5). Briefly: SPR (BIACORE 8K, 37 C); antibody captured on Protein A, soluble ULBP injected.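 Note: ligand injected as threefold dilution series in HBS-P (highest 10 or 50 nM), reference-cell and buffer-subtracted sensorgrams fitted with a 1:1 Langmuir model for on and off rates.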
The target in assay [11] is T4, human soluble ULBP6 haplotype 01 …. The description is as above.
For assay [12], the target named is T5, cynomolgus soluble ULBP2/6 (cULBP2/6). The assay is described as above.
In assay [13] the target is T6, human soluble ULBP2 (hULBP2). The description is as above.
In assay [14] the target is T1, human soluble ULBP6 haplotype 02 …. Described as above.
Assay [15] addresses T7, cell surface ULBP6_01 on COV644 cells (human, UniProt Q5VY80 27-218).
T7 construct: whole, on cells; also called cell surface ULBP6 (COV644)
T7 chain: T1 chain with R1G, L81R, T122I
The assay can be described thus: flow cytometry; blocking of hNKG2D-mFc binding to COV644 cells, average of 2 replicates.

Assay [16] has as its target T7, cell surface ULBP6_01 on COV644 cells. Briefly: flow cytometry on COV644 cells, anti-hFc-APC detection, average of 2 replicates. Background: A flow cytometer gives signals particle by particle.
Assay [17] concerns the target T8, cell surface ULBP6_02 on PANC02.13 cells (human, UniProt Q5VY80 26-218).
T8 construct: whole, on cells; also called cell surface ULBP6 (PANC02.13)
T8 chain: T1 chain
Briefly: flow cytometry on PANC02.13 cells, anti-hFc-APC detection, average of 2 replicates.

The target in assay [18] is T9, human ULBP6 displayed on M13 phage (ULBP6-HA-pIII) (human, UniProt Q5VY80 26-218).
T9 construct: also called ULBP6 phage; not shown: M13 minor coat protein pIII
T9 sequence: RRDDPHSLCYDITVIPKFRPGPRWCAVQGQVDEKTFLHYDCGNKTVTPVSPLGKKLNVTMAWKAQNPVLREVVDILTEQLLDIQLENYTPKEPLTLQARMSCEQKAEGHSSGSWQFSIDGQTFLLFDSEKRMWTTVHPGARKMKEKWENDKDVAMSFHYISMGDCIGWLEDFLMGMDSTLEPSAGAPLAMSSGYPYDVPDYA
Briefly: phage ELISA: plate coated with the antibody, ULBP6 phage titrated in 3-fold steps from 1.0 O.D./mL, HRP anti-M13 detection, O.D. 450.

Chain of hNKG2D-Fc (human NKG2D 78-216 with C-terminal long huFc-Flag tag) (human) (chain, as listed by the source limits assumed): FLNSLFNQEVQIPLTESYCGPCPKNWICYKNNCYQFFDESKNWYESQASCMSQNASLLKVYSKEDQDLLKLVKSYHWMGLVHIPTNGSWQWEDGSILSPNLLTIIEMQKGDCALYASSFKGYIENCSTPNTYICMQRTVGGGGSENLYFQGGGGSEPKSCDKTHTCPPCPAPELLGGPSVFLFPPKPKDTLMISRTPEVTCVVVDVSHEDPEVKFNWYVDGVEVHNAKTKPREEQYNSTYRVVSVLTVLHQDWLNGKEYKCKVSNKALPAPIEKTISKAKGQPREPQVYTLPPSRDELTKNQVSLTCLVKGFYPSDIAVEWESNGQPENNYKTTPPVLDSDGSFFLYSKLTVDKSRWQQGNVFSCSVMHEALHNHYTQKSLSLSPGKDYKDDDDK

B1: Humanized 6E1 (h6E1) (E-) (antibody, human IgG1, kappa, N297G, V domains shown)
VH: EVQLVQSGAEVKKPGASVKVSCKASGYTFTNYWMHWMRQAPGQGLEWLGRIHPSDSDTNYNQKFKGRATLTVDKSISTAYMELSRLRSDDTAVYYCAIEGTGKGYFDVWGRGTLVTVSS
VL: DIQMTQSPSSLSASVGDRVTITCKASQDIYSYLSWFQQKPGKSPKTLIYRANRLVDGVPSRFSGSGSGQDFTLTISSLQPEDFATYYCLHYDEFPLTFGGGTKVEIKR
notes: hIgG1 with N297G (effector negative)
By IC50 is commonly meant the concentration needed to halve the response being measured. One may read the Kd as the free concentration of one partner at which half of the binding sites on the other are occupied at equilibrium, for simple one-to-one binding. Low readings indicate a tighter complex, high ones a looser complex. In the case of B1, the IC50 in [1] was determined as 0.103 nM; in assay [8] it was 10.2 nM. Further, the Kd in assay [2] stood at 8.7 nM; in assay [3], 1.03 nM; in assay [4] it was 4.38 nM; in [5], 1.76 nM; in assay [6], 8.91 nM; in assay [7], 0.68 nM.

B2: human soluble MICB (hMICB) (ligand)
chain: AEPHSLRYNLMVLSQDESVQSGFLAEGHLDGQPFLRYDRQKRRAKPQGQWAEDVLGAKTWDTETEDLTENGQDLRRTLTHIKDQKGGLHSLQEIRVCEIHEDSSTRGSRHFYYDGELFLSQNLETQESTVPQSSRAQTLAMNVTNFWKEDAMKTKTHYRAMQADCLQKLQRYLKSGVAIRRTVPPMVNVTCSEVSEGNITVTCRASSFYPRNITLTWRQDGVSLSHNTQQWGDVLPDGNGTYQTWVATRIRQGEEQRFTCYMEHSGNHGTHPVPSGKVLVLQSQRTD
notes: the printed Uniprot number (29983) looks wrong; also called sMICB
For B2, the Kd in assay [9] came out at 118 nM.

B3: humanized 1D4 (h1D4), Fc version not stated (antibody, V domains shown)
VH: EIQLVQSGSELKKPGASVKVSCKASGYTFTEYPIHWVRQAPGQGFEWMGMIYTDTGEPTHAEEFKGRFVFSLDTSVSTAYLQISSLKAEDTAVYFCVRWYDGSSYIMDYWGQGTTVTVSS
VL: DIQMTQSPSSLSASVGDRVTITCKASQDINSYLSWFQQKPGKSPKTLIYRANRLVDGVPSRFSGSGSGQDYTFTISSLQPEDIATYYCLQYDEFPLTFGGGTKVEIK
notes: Recombinant humanized antibody, hIgG1 backbone with kappa light chain; also called hiD4; hu1D4
One may read the koff as the rate constant with which the complex falls apart. Read a low koff as a long-lived complex. In general, kon refers to the rate constant with which the complex forms. Lower therefore signals slower complex formation. In general, EC50 refers to the concentration needed to bring the measured effect to its halfway point. Low readings indicate a more potent agent, high ones a less potent agent. With B3, the Kd in [10] is 0.735 nM; in assay [11], 0.422 nM; in assay [12], 0.151 nM; in assay [13], 0.642 nM; in assay [14], 1.31 nM. Moreover, the koff in assay [10] came out at 0.00105 s⁻¹; in [11], 0.00114 s⁻¹; in assay [12], 0.00133 s⁻¹; in [13], 0.00148 s⁻¹; in [14], 0.00215 s⁻¹. Moreover, the kon in assay [10] came out at 1.43e+06 M⁻¹ s⁻¹; in [11], 2.69e+06 M⁻¹ s⁻¹; in assay [12], 8.84e+06 M⁻¹ s⁻¹; in assay [13], 2.31e+06 M⁻¹ s⁻¹; in assay [14], 1.64e+06 M⁻¹ s⁻¹. The molecule further returned an IC50 in assay [15] of 0.22 nM. Also, the values for the EC50 in assay [16] and in [17] were 1.4 nM and 0.72 nM, respectively. Further, the “EC50 (read off the curve)” value in assay [18] was ~0.006 O.D. (phage).

B4: humanized 6E1 (h6E1), Fc version not stated (antibody, V domains shown)
VH: B1 VH
VL: B3 VL with N30Y, Y71F, F73L, I83F, Q90H
notes: Recombinant humanized antibody, hIgG1 backbone with kappa light chain; also called hu6E1; PUR3993
B4: the Kd in assay [10] came to 1.51 nM; in assay [11], 5.24 nM; in [12], 0.415 nM; in assay [13], 10.7 nM; in [14], 0.939 nM. The koff in assay [10] turned out to be 0.00922 s⁻¹; in [11], 0.0246 s⁻¹; in assay [12] it was 0.0115 s⁻¹; in [13], 0.0386 s⁻¹; in assay [14] it was 0.00664 s⁻¹. Further, the kon in assay [10] was determined as 6.1e+06 M⁻¹ s⁻¹; in assay [11], 4.7e+06 M⁻¹ s⁻¹; in assay [12] it was 2.77e+07 M⁻¹ s⁻¹; in assay [13], 3.62e+06 M⁻¹ s⁻¹; in assay [14] it was 7.07e+06 M⁻¹ s⁻¹. For the same molecule, in [15], the IC50 worked out at 0.2 nM. The EC50 in assay [16] turned out to be 0.36 nM; in assay [17], 0.44 nM. Besides, the “EC50 (read off the curve)” value in [18] is ~0.006 O.D. (phage).

B5: Humanized 1D4 (h1D4) (E-) (antibody, human IgG1, kappa, N297G, V domains shown)
VH: B3 VH
VL: B1 VL with Y30N, F71Y, L73F, F83I, H90Q
notes: as for B1
On to B5, for which the figures for the IC50 in assay [1] and in [8] were 0.265 nM and 7.7 nM, respectively. For the same molecule, the dissociation constant Kd in [2] stood at 8.88 nM; in assay [3] it was 0.63 nM; in assay [4], 0.41 nM; in assay [5], 0.99 nM; in [6], 0.47 nM; in assay [7], 1.06 nM.

B6: humanized 8E11 (h8E11), Fc version not stated (antibody, V domains shown)
VH: EVQLVESGGGLVQPGGSLRLSCAASGFTFRTYGMHWVRQAPGKGLEWVAYISSGSGTIDYADTVKGRFTISRDNAKNSLYLQMNSLRAEDTAVYYCTRQTGAMDYWGQGTLVTVSS
VL: EIVLTQSPATLSLSPGERATLSCSASSSVSYMNWYQQKPGQSPRLWIYGISNLASGVPARFSGSGSGTDFTLTISSLEPEDFAVYYCQQRSSHPLTFGGGTKVEIK
notes: Recombinant humanized antibody, hIgG1 backbone with kappa light chain; also called PUR3926
Consider B6, for which the Kd stood at 23.9 nM in assay [10]; 0.331 nM in [11]; 11.4 nM in assay [12]; 0.662 nM in assay [13]; 0.383 nM in assay [14]. The koff in assay [10] came to 0.00333 s⁻¹; in assay [11], 0.000492 s⁻¹; in [12], 0.0045 s⁻¹; in assay [13], 0.000542 s⁻¹; in assay [14], 0.000459 s⁻¹. The kon in [10] was found to be 139000 M⁻¹ s⁻¹; in assay [11], 1.48e+06 M⁻¹ s⁻¹; in assay [12], 396000 M⁻¹ s⁻¹; in [13], 819000 M⁻¹ s⁻¹; in assay [14], 1.2e+06 M⁻¹ s⁻¹. The IC50 in [15] turned out to be 0.11 nM. Moreover, the EC50 in assay [16] was 1.29 nM; in assay [17], 1.28 nM. In assay [18], the “EC50 (read off the curve)” value was ~0.006 O.D. (phage).
